The target of assay [1] is human DLL3 on cells (human) (UniProt Q9NYJ7). Nature of the assay: cell-based or functional assay.
For assay [2], the target named is human DLL3 on cells (human), Q9NYJ7. The assay can be described thus: cell-based or functional assay.
human DLL3 on cells (human), Q9NYJ7, sequence (Q9NYJ7 27-618): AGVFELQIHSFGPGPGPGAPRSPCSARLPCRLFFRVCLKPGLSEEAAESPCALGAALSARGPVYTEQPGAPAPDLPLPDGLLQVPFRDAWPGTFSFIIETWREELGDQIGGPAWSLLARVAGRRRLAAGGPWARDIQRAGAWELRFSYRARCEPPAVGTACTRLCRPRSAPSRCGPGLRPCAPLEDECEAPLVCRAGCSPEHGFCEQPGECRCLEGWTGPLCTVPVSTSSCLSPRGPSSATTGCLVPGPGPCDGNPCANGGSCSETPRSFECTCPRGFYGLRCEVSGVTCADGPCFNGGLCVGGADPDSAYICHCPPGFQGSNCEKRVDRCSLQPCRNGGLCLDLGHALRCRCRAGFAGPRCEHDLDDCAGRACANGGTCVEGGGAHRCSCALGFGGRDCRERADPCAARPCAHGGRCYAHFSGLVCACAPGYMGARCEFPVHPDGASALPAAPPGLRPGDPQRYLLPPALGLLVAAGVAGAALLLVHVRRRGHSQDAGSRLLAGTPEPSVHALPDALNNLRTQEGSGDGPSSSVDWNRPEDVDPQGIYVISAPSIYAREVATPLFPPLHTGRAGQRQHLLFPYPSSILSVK

human DLL3 on cells (human), sequence (Q9NYJ7 27-618): as above

B1: SC16.34 (antibody, V domains shown)
VH: QIQLVQSGPELKRPGETVKISCKASGYTFTNYGMNWVKQAPGKGLKWMGWINTYTGDPTYADDFKGRFAFSLETSASTAYLQINNLKNEDTATYFCARIGGNSPSDYWGQGTSLTVSS
VL: SIVMTQTPKFLLVSAGDRVTITCKASQSVSNDVAWYQQKPGQSPKLLIYYASNRYSGVPDRFTGSGYGTDFTFTISTVQAEDLAVYFCQQDYSSPWTFGGGTKLEIK
In assay [1], B1 registered an EC50 of killing of OV26 NTX tumor cells with anti-mouse IgG Fab-saporin of 5.7 pM.

B2: hSC16.15-ADC1 (antibody, human IgG1, V domains shown)
VL: AIQLTQSPSSLSASVGDRVTITCRASENIYYNLAWYQQKPGKAPKLLIYTANSLEDGVPSRFSGSGSGTDFTLTISSLQPEDFATYFCKQAYDVPPTFGGGTKLEIK
VH: QVQLVQSGAEVKKPGASVKVSCKASGYTFTRYWIHWIRQAPGQGLEWMGYINPTTVYTEFNQNFKDRVTMTRDTSTSTVYMELSSLRSEDTAVYYCARGGSNFFDYWGQGTTVTVSS
modifications: here or on the partner: PBD dimer drug-linker ADC1 on reduced Cys residues (positions not stated)
On to B2, for which, in assay [2], the concentration that killed 50% of LU37 NTX cells (7 days, Cell Titer Glo) is under 10 ng/mL.

B3: SC16.15 (antibody, V domains shown)
VH: QVQLQQSGAELAKPGASVKMSCKASGYTFTRYWIHWIKQRPGQGLEWIGYINPTTVYTEFNQNFKDKATLTADKSSTTASMQLSSLTSEDSAVYYCARGGSNFFDYWGQGTTLTVSS
VL: DIQMTQSPASLAASVGETVAITCRASENIYYNLAWYQQKQGKSPQLLIYTANSLEDGVPSRFSGSGSGTQYSLKINSMQPEDSATYFCKQAYDVPPTFGGGTKLEIK
Consider B3, for which the EC50 of killing of OV26 NTX tumor cells with anti-mouse IgG Fab-saporin in assay [1] turned out to be 0.14 pM.

B4: hSC16.56-ADC1 (antibody, human IgG1, V domains shown)
VL: EIVMTQSPATLSVSPGERATLSCKASQSVSNDVVWYQQKPGQAPRLLIYYASNRYTGIPARFSGSGSGTEFTLTISSLQSEDFAVYYCQQDYTSPWTFGQGTKLEIKR
VH: QVQLVQSGAEVKKPGASVKVSCKASGYTFTNYGMNWVRQAPGQGLEWMGWINTYTGEPTYADDFKGRVTMTTDTSTSTAYMELRSLRSDDTAVYYCARIGDSSPSDYWGQGTLVTVSS
modifications: here or on the partner: PBD dimer drug-linker ADC1 on reduced Cys residues (positions not stated)
In turn, B4 had a dose that killed 50% of naïve KDY66 cells (7 days, Cell Titer Glo) in assay [2] of 13.3 pM.

(Values after patent publication US20140370037A1.)
